Patent US20210277137A1 (AbbVie / Abbott, published 2021)

T1: human FcγRIIB (CD32b) on CHO cells (human, UniProt P31994 43-310)
T1 construct: whole, on cells
T1 sequence (looked up): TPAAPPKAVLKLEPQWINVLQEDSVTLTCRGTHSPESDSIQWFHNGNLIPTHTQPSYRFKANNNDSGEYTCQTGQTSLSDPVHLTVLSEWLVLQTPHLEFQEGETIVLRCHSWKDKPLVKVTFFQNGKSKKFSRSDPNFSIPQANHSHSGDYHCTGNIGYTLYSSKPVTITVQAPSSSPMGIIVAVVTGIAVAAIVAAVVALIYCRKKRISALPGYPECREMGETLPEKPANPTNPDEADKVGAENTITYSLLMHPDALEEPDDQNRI

T2: human FcγRIIA (CD32a) on CHO cells (human, UniProt P12318 34-317)
T2 construct: whole, on cells
T2 sequence (looked up): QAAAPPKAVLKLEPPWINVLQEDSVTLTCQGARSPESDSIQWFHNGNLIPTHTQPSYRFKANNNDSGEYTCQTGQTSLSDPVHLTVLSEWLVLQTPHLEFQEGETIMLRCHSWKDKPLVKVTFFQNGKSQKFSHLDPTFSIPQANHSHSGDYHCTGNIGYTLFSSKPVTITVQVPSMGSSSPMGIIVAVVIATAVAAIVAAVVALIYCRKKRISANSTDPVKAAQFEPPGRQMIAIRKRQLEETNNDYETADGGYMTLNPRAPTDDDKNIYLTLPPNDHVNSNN


Experiments:
[1] = molecular target: T3, CD40-human Fc (huFc) fusion protein (Creative BioMart) (human, UniProt P25942 21-193); assay: ELISA: antibody titrated into 1 µg/mL CD40-huFc, mixture added to plate coated with HA-tagged CD40L, bound complex detected with HRP anti-human Fc; half-maximal enhancement of the signal of CD40-huFc on CD40L
T3 construct: bought; also called CD40-huFc; not shown: human Fc
Text: After development with TMB (3, 3′, 5, 5′-tetramethylbenzidine) substrate, the plates were read at OD₄₅₀.

human CD40 on cells [2] = molecular target: T4, human CD40 on cells (human, UniProt P25942 21-277); assay: cell-based or functional assay
[3] = molecular target: T5, Alexa Fluor 488-conjugated soluble human CD40 protein (human, UniProt P25942 21-193, limits assumed, Alexa Fluor 488 conjugate (sites not given)); assay: flow cytometry: antibody titrated into 1 µg/mL Alexa Fluor 488-conjugated soluble human CD40 on CD40L+ Jurkat cells; half-maximal enhancement of the binding of CD40 to cell-surface CD40L
T5 construct: also called fluorochrome-conjugated human CD40

[4] = molecular target: T6, soluble cynomolgus (cyno) CD40 (Creative BioMart, cat #CD40-8824C) (cynomolgus, UniProt G7PG38 21-193); assay: SPR (BIAcore T200); antibody captured by anti-Fc; soluble CD40 injected
T6 construct: extracellular domain; also called Cynomolgus CD40
Procedure: (§1) CD40 binding kinetics was analyzed by BIAcore assay with a BIAcore T200 instrument. Briefly, a goat anti-mouse Fc antibody (Pierce, cat #31170) or goat anti-human Fc (Pierce, cat #31125) was immobilized on a CM5 sensor chip, followed by capture of the anti-CD40 antibodies on the test surface.

[5] = molecular target: soluble form of the extracellular domain of human CD40 (Creative BioMart, cat #CD402221H) (human, UniProt P25942 21-193); assay: as above
Procedure: as §1

[6] = molecular target: T7, human FcγRI (CD64) on CHO cells (human, UniProt P12314 16-374); assay: flow cytometry on CHO cells stably expressing human FcγRI (CD64), detection with fluorescence-conjugated anti-human F(ab')2 secondary antibody
T7 construct: whole, on cells
Procedure: (§2) Increasing amounts of anti-CD40 human IgG₁ antibodies and their Fc variants were incubated with CHO cells stably expressing different human Fcγ receptors, including FcγRI (CD64), FcγRIIA (CD32a), FcγRIIB (CD32b), and FcγRIIIA (CD16) with either F or V polymorphism. The binding was detected with a fluorescence-conjugated anti-human F(ab′)2 specific secondary antibody (Jackson ImmunoResearch).

[7] = molecular target: T1, human FcγRIIB (CD32b) on CHO cells; assay: flow cytometry on CHO cells stably expressing human FcγRIIB (CD32b), detection with fluorescence-conjugated anti-human F(ab')2 secondary antibody
Procedure: as §2

[8] = molecular target: T8, human FcγRIIIA (CD16) with V polymorphism on CHO cells (human, UniProt P08637 17-254); assay: flow cytometry on CHO cells stably expressing human FcγRIIIA (CD16V), detection with fluorescence-conjugated anti-human F(ab')2 secondary antibody
T8 construct: whole, on cells; V allotype; also called CD16V
Procedure: as §2

[9] = molecular target: T2, human FcγRIIA (CD32a) on CHO cells; assay: flow cytometry on CHO cells stably expressing human FcγRIIA (CD32a), detection with fluorescence-conjugated anti-human F(ab')2 secondary antibody
Procedure: as §2

[10] = molecular target: T9, human FcγRIIIA (CD16) with F polymorphism on CHO cells (human, UniProt P08637 17-254); assay: flow cytometry on CHO cells stably expressing human FcγRIIIA (CD16F), detection with fluorescence-conjugated anti-human F(ab')2 secondary antibody
T9 construct: whole, on cells; also called CD16F
Procedure: as §2

human CD40 on cells [11] = molecular target: T4, human CD40 on cells; assay: cell-based or functional assay; remark: listed apart in the source

Chain of soluble form of the extracellular domain of human CD40 (Creative BioMart, cat #CD402221H) (P25942 21-193 limits assumed): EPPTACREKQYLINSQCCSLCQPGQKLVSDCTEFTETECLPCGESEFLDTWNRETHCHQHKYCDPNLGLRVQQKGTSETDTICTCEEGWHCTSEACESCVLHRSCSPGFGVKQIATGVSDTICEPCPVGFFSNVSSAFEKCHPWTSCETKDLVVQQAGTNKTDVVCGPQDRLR
T4 sequence (P25942 21-277 limits assumed): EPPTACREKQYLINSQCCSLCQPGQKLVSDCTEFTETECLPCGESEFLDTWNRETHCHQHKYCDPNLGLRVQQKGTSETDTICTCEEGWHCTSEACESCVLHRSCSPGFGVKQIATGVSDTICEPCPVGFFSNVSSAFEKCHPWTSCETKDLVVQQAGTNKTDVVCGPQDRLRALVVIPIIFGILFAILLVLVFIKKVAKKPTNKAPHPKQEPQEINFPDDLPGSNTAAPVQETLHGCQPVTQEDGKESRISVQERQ
T3 sequence (P25942 21-193 limits assumed): as the sequence (P25942 21-193 limits assumed) above
T9 sequence (P08637 17-254): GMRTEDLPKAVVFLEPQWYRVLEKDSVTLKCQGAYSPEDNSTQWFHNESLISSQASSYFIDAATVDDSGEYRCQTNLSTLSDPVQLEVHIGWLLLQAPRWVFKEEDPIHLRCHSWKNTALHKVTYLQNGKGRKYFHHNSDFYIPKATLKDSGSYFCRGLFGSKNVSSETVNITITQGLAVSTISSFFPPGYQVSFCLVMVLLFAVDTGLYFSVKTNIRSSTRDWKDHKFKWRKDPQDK
T5 sequence (P25942 21-193 limits assumed): as the sequence (P25942 21-193 limits assumed) above
T8 sequence (P08637 17-254 F176V): as the sequence (P08637 17-254) above, with F160V counted along it
T7 sequence (P12314 16-374): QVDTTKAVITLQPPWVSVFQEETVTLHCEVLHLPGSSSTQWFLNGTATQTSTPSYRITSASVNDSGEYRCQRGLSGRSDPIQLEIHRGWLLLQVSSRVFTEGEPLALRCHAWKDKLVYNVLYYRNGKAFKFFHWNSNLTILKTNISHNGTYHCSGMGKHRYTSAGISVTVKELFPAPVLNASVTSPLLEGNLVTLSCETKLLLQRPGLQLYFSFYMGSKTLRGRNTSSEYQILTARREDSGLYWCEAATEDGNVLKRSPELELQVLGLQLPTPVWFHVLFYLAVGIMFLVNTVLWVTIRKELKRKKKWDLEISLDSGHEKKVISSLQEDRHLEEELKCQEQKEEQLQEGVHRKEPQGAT

EC50 (read off the curve) [1] | NFκB activity EC50; HEK293 blue CD40 reporter cells co-cultured with CHO cells expressing CD16F (human CD40 on cells [2]) | NFκB activity EC50; HEK293 blue CD40 reporter cells co-cultured with CHO cells expressing CD16V (human CD40 on cells [2]) | NFκB activity EC50; HEK293 blue CD40 reporter cells co-cultured with CHO cells expressing CD32a (human CD40 on cells [2]) | NFκB activity EC50; HEK293 blue CD40 reporter cells co-cultured with CHO cells expressing CD32b (human CD40 on cells [2]) | NFκB activity EC50; HEK293 blue CD40 reporter cells co-cultured with CHO cells expressing CD64 (human CD40 on cells [2]) | NFκB activity EC50; HEK293 blue CD40 reporter cells co-cultured with FcγR negative CHO cells (human CD40 on cells [2]) | EC50 (read off the curve) [3] | Kd [4] | koff [4] | Kd [5] | koff [5] | kon [5] | EC50 (read off the curve) [6] | binding result [7] | binding result [8] | binding result [9] | binding result [10] | Maximal activation (OD655) in HEK293 blue CD40 NFκB reporter cells (human CD40 on cells [11]) | NFκB activation EC50 (SEAP, OD655) in HEK293 blue CD40 NFκB reporter cells (human CD40 on cells [11]) | Binder
~1 µg/mL | 390 pM | 300 pM | 80 pM | 70 pM | 10 pM | 720 pM | ~4 µg/mL | 150000 pM | 0.25 s⁻¹ | 170000 pM | 0.22 s⁻¹ | 1.3e+06 M⁻¹ s⁻¹ |  |  |  |  |  |  |  | Humanized muAb9 A2I (antibody, human IgG1, kappa, human IgG1 V273E/kappa; also called huAb9 A2I; huAb9 A2I (huIgG1 V273E)) heavy: not shown light: DIVMTQTPLSLSVTPGQPASISCRSSQSLENTNGNTFLNWYLQKPGQSPQLLIYRVSNRFSGVPDRFSGSGSGTDFTLKISRVEAEDVGVYYCLQVTHVPFTFGQGTKLEIKRTVAAPSVFIFPPSDEQLKSGTASVVCLLNNFYPREAKVQWKVDNALQSGNSQESVTEQDSKDSTYSLSSTLTLSKADYEKHKVYACEVTHQGLSSPVTKSFNRGEC
~0.2 µg/mL |  |  |  |  |  |  |  |  |  |  |  |  | ~0.5 µg/mL | no binding (tested: 100 µg/mL) | binds | binds | binds | 0.67 OD655 | 1.13 µg/mL | Humanized muAb9 #5 (antibody, human IgG1, kappa, wild type human IgG1/kappa; also called huAb9-5; huAb9-5 with wild type huIgG1) heavy: not shown light: DAVMTQTPLSLSVTPGQPASISCRSSQSLENTNGNTFLNWYLQKPGQSPQLLIYRVSNRFSGVPDRFSGSGSGTDFTLKISRVEAEDVGVYYCLQVTHVPFTFGQGTKLEIKRTVAAPSVFIFPPSDEQLKSGTASVVCLLNNFYPREAKVQWKVDNALQSGNSQESVTEQDSKDSTYSLSSTLTLSKADYEKHKVYACEVTHQGLSSPVTKSFNRGEC
